Results on 2 molecules are retold here after US20230017777, “MONOCYTE AND MACROPHAGE BINDING APTAMERS AND THEIR APPLICATION” (University of Washington, published 2023).

Data set [1] addresses T1, CD14 (UniProt P08571 P08571:20-345).
T1 sequence: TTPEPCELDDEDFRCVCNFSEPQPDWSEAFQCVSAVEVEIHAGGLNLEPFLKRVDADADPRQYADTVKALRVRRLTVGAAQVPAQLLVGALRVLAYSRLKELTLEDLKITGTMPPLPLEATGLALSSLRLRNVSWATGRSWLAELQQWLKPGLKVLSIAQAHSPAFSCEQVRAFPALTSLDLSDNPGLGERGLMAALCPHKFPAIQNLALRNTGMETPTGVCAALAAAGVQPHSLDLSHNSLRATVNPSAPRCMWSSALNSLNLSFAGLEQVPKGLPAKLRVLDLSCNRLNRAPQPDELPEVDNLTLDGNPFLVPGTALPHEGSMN
In words: BLI; nonspecific aptamer control. The conditions noted are these: label: Cy5 (flow cytometry).

Data set [2] has as its target T1, CD14. Nature of the data set: BLI; no significant binding over SCRM; figure legend calls it SPR, text says BLI (Octet Red96). The conditions noted are these: label: Cy5. (BLI is a label-free optical method that tracks binding on a fibre tip over time.)

B1: SCRM (scrambled / nonspecific control aptamer) (ssDNA)
DNA: ATCCAGAGTGACGCAGCAATGATAGTGACGTACGGACTAGGGATCACCCATATCATGTAGAGGAAGTACGTGGACACGGTGGCTTAGT
As for B1, the binding result with CD14 [1] is “no binding”.

B2: A2 (ssDNA)
DNA: ATCCAGAGTGACGCAGCAGAAGAGTAGATGAAACGTTTTTTCGCCCGATAAAAGGGACGTGCGTCAGACATGGACACGGTGGCTTAGT
Regarding B2, in the data set with CD14 [2], the binding result is reported as “no binding”.
